According to PMC7303358, “The Lotus japonicus Ubiquitin Ligase SIE3 Interacts With the Transcription Factor SIP1 and Forms a Homodimer” (Frontiers in Plant Science, 2020):

Biological target: the molecule itself
Experiment: SDS-PAGE without DTT in the loading buffer and immunoblot (band of dimer size); SIE3::GFP leaf extract in native buffer, incubated with 10 μM ATP at 4°C with 0 or 100 mM DTT; stopped with SDS loading buffer without DTT; anti-GFP blot

B1: SIE3::GFP (natural protein, L. japonicus, UniProt K0BV36 1-386, looked up)
chain: MELSTIKDAFDRVTKKQKSSSSKTQEVIDQIRQEIENVLDTMQSVNNTDHVLDHKTVLNELKASLLQTAPLSQMEGTQKELNVALSKYGKLLEKNFNTDISKAYRNIDIDVHTLNQIIANHFYRQGLFEIGDHFLSVVGEPESAAVMKSPFLEMYQILEAMKNQDLEPALKWATSNSDKLAQSGSDIVLKLHSMQFVKILQNGSRDEALHYARTYLSPFASSHIADIQKLMGSLLWTGKLDSSPYHALLSPSNWDRLAEELKRQFCNLLGQSYNSPLSVTISAGVQALPPLLKFMNVMVGKKQEWQTMNQLPVPVELDSELQFHSIFVCPVSKEQATEDNPPMLMSCGHVLCKQSISKMSKNGSKLFKCPYCPFDVDAALCKQLYF
notes: SIE3 of Lotus japonicus fused to GFP; the cloning of this construct is not described; Detected with anti-GFP antibody; monomer about 68.5 kDa, upper band about 137 kDa; source: N. benthamiana leaves, total proteins extracted in native buffer
  stoichiometry N: 2
